{"source": "patent US20190161555A1", "about": "(ALLIGATOR BIOSCIENCE, published 2019)", "binders": {"B1": {"name": "1210/1211 (antibody, IgG1, V domains shown)", "VH": "not shown", "VL": "DIQMTQSPSSLSASVGDRVTITCRASQSISSYLNWYQQKPGKAPKLLIYAASSLQSGVPSRFSGSGSGTDFTLTISSLQPEDFATYYCQQTYGYLHTFGQGTKLEIK", "notes": "5T4 antibody"}, "B2": {"name": "1206/1207 (antibody, V domains shown)", "VH": "EVQLLESGGGLVQPGGSLRLSCAASGFTFSGSSMSWVRQAPGKGLEWVSSIYYSGSGTYYADSVKGRFTISRDNSKNTLYLQMNSLRAEDTAVYYCARYGRNVHPYNLDYWGQGTLVTVSS", "VL": "B1 VL with T91G, G93Y, H96P", "notes": "5T4 antibody"}}, "key": {"5T4-Fc": {"target": "T1, 5T4-Fc (human, UniProt Q13641 32-355, limits assumed)", "T1 construct": "obtained from Peter L. Stern, University of Manchester; also called h5T4-Fc; recombinant 5T4", "T1 sequence (looked up)": "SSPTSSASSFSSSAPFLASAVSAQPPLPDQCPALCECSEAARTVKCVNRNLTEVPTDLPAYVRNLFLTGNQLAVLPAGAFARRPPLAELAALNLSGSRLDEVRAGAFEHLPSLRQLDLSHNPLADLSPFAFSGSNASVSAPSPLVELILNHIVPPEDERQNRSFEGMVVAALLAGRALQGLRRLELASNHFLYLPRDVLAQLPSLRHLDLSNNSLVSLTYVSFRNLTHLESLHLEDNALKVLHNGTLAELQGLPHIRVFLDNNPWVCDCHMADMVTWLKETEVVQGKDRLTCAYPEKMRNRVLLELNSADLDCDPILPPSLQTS", "test": "ELISA, plates coated with 5T4-Fc", "protocol": "ELISA was performed using a standard protocol. Plates (#655074, Greiner Bio-One GmbH, Germany) were pre-coated with 0.5 μg/ml 5T4-Fc (obtained from Peter L. Stern, University of Manchester) overnight. 5T4 antibodies were diluted from 6 to 1.5×10⁻³ μg/ml in 1:4 dilutions and added in duplicates of 50 μl to each well. Binding was detected with rabbit anti-h kappa L-chain-HRP (P0129, Dako Denmark) and the ELISA was developed with SuperSignal ELISA PICO Chemiluminescent substrate (Thermo Scientific Pierce, Rockford, Ill. USA) for 2-10 minutes and read in an automated microplate based multi-detection reader (FLUOstar OPTIMA, Netherlands)."}, "mouse 5T4": {"target": "T2, mouse 5T4 (mouse, UniProt Q9Z0L0 32-426)", "T2 construct": "whole, on cells; also called murine 5T4", "T2 sequence (looked up)": "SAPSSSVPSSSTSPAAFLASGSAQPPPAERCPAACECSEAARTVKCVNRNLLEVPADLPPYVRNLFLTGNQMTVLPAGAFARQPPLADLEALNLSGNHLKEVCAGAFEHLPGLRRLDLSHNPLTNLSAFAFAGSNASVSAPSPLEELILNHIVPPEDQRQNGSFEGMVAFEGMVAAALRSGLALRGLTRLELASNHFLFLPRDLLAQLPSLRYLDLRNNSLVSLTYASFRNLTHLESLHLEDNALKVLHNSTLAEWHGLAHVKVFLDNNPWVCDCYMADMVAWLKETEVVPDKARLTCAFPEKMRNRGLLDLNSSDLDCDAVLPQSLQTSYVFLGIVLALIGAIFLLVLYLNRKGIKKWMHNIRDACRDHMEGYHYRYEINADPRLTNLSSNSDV", "test": "flow cytometry, mouse 5T4-transfected cells"}, "[1]": {"target": "T3, human 5T4 on transfected cells (human, UniProt Q13641 32-420)", "T3 construct": "whole, on cells; for B16 and A9 cells only a 5T4 construct is named; also called 5T4-transfected B16 cells; B16-5T4", "T3 sequence (looked up)": "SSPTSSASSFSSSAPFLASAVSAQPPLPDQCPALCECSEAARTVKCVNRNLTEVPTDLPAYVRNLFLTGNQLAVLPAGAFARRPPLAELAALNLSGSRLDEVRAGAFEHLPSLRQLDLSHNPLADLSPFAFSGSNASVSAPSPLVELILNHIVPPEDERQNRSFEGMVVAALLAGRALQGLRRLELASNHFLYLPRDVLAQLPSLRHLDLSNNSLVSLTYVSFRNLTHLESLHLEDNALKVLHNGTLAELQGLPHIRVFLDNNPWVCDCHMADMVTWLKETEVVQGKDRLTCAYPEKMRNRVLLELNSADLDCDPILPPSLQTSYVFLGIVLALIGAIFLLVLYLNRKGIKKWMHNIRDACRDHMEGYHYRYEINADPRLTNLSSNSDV", "test": "flow cytometry, 5T4-transfected A9 cells", "protocol": "(§1) Analysis of 5T4 mAb binding with flow cytometry was performed using 5T4-transfected cell lines and as negative control, mock transfected cells. Three different transfected cell lines used were used for this study; B16, A9 and CHO, transfected either with a 5T4 construct or with an empty vector control construct. Cells were stained with 5T4 antibodies diluted in FACS buffer (PBS, 0.5% BSA and 0.02% NaN₃). […] Samples were analysed either on a FACSCalibur or a FACSverse (BD Biosciences, Heidelberg, Germany) and mean fluorescence intensity (MFI) determined."}, "[2]": {"target": "T3, human 5T4 on transfected cells", "test": "flow cytometry, 5T4-transfected B16 cells", "protocol": "as §1"}, "cynomolgus 5T4 [3]": {"target": "T4, cynomolgus 5T4 (Macaca mulatta (cynomolgus))", "T4 construct": "whole, on cells; stably transfected CHO cells; also called cyno5T4; cy5T4", "test": "flow cytometry, CHO cells transfected with cynomolgus 5T4", "protocol": "(§2) The potency of 5T4 antibodies in binding to cynomolgus 5T4 was determined by flow cytometry. CHO cells were stably transfected with […] (cynomolgus) 5T4. […] Samples were analysed either on a FACSCalibur or a FACSverse (BD Biosciences, Heidelberg, Germany) and mean fluorescence intensity (MFI) determined. […] To compare the EC50 values between human and cynomolgus 5T4, the cy5T4/hu5T4 ratio was calculated from the experiment with the full dose-response."}, "[4]": {"target": "T3, human 5T4 on transfected cells", "test": "flow cytometry, CHO cells stably transfected with human 5T4", "protocol": "as §1\nIn a new attempt to calculate EC50 with flow cytometry a 5T4 mAb dose response experiment was performed using CHO cells stably transfected with human 5T4."}, "[5]": {"target": "T5, 5T4 (immobilised for SPR) (UniProt Q13641 32-355, limits assumed, biotinylated on the MASS-1 platform)", "T5 construct": "also called biotinylated 5T4", "T5 sequence (looked up)": "T1 sequence (looked up)", "test": "SPR Biacore 3000, 5T4 amine-coupled, mAb injected, 1:1 Langmuir", "protocol": "Binding kinetics of the 5T4-specific mAbs have been studied using two different SPR-based platforms, the Biacore 3000 (GE Healthcare) and the MASS-1 platform (Sierra Sensors). Briefly, 5T4 was captured at the sensor chip surface either via direct amine coupling (Biacore platform) or using a streptavidin coated chip and biotinylated 5T4 (MASS-1 platform). The different 5T4-specific mAbs were then injected over the chip in increasing concentrations and the association and dissociation rates studied in real time. A 1:1 Langmuir model was used for curve fitting."}, "cynomolgus 5T4 [6]": {"target": "T4, cynomolgus 5T4", "test": "flow cytometry, CHO cells with cynomolgus 5T4 against CHO cells with human 5T4", "protocol": "as §2"}}, "note": "Numbering of substitutions follows the chain as printed."}
{"binder": "B1", "values": [{"measurement": "EC50", "setting": "5T4-Fc", "result": 0.48, "unit": "nM"}, {"measurement": "binding result", "setting": "mouse 5T4", "result": "no binding"}, {"measurement": "Normalized EC50 (to 1628)", "setting": "[1]", "result": "1.8 ratio to 1628"}, {"measurement": "EC50", "setting": "[2]", "result": 0.8, "unit": "nM"}, {"measurement": "Normalized EC50 (to 1628)", "setting": "[2]", "result": "1.6 ratio to 1628"}, {"measurement": "EC50", "setting": "cynomolgus 5T4 [3]", "result": 0.7, "unit": "nM"}, {"measurement": "EC50", "setting": "[4]", "result": 0.81, "unit": "nM"}, {"measurement": "EC50 normalized to reference 1628", "setting": "[4]", "result": "1.6 ratio to 1628"}, {"measurement": "Kd", "setting": "[5]", "result": 0.2, "unit": "nM"}, {"measurement": "koff", "setting": "[5]", "result": 0.0001, "unit": "s⁻¹"}, {"measurement": "kon", "setting": "[5]", "result": 500000, "unit": "M⁻¹ s⁻¹"}, {"measurement": "Ratio EC50cyno-5T4/h5T4", "setting": "cynomolgus 5T4 [6]", "result": 0.9, "unit": "ratio"}]}
{"binder": "B2", "values": [{"measurement": "EC50", "setting": "5T4-Fc", "result": 0.64, "unit": "nM"}, {"measurement": "binding result", "setting": "mouse 5T4", "result": "no binding"}, {"measurement": "Normalized EC50 (to 1628)", "setting": "[1]", "result": "2.9 ratio to 1628"}, {"measurement": "EC50", "setting": "[2]", "result": 1.8, "unit": "nM"}, {"measurement": "Normalized EC50 (to 1628)", "setting": "[2]", "result": "3.9 ratio to 1628"}, {"measurement": "EC50", "setting": "cynomolgus 5T4 [3]", "result": 1.53, "unit": "nM"}, {"measurement": "EC50", "setting": "[4]", "result": 0.51, "unit": "nM"}, {"measurement": "EC50 normalized to reference 1628", "setting": "[4]", "result": "1 ratio to 1628"}, {"measurement": "Kd", "setting": "[5]", "result": 2.3, "unit": "nM"}, {"measurement": "koff", "setting": "[5]", "result": 0.00028, "unit": "s⁻¹"}, {"measurement": "kon", "setting": "[5]", "result": 130000, "unit": "M⁻¹ s⁻¹"}, {"measurement": "Ratio EC50cyno-5T4/h5T4", "setting": "cynomolgus 5T4 [6]", "result": 3, "unit": "ratio"}]}
